{"source": "patent US20140072613A1", "about": "“Compositions and Methods for Treating Cutaneous Scarring” (priority 2012, published 2014)", "test_in_all_cases": "biochemical", "type_in_all_cases": "biochemical", "key": {"266 human kinases [1]": {"molecular_target": "266 human kinases (Homo sapiens, UniProt Q96GD4)", "details": "Aurora-B(h); 100 μM", "outline": "(§1)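 Kinase phosphorylates cationic substrate with radiolabelled ATP phosphate; substrate retained on anionic filter membrane; scintillation count; % of 100% activity control.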"}, "266 human kinases [2]": {"molecular_target": "T1, 266 human kinases (Homo sapiens, UniProt Q9UHD2)", "T1 sequence (Q9UHD2 1-729)": "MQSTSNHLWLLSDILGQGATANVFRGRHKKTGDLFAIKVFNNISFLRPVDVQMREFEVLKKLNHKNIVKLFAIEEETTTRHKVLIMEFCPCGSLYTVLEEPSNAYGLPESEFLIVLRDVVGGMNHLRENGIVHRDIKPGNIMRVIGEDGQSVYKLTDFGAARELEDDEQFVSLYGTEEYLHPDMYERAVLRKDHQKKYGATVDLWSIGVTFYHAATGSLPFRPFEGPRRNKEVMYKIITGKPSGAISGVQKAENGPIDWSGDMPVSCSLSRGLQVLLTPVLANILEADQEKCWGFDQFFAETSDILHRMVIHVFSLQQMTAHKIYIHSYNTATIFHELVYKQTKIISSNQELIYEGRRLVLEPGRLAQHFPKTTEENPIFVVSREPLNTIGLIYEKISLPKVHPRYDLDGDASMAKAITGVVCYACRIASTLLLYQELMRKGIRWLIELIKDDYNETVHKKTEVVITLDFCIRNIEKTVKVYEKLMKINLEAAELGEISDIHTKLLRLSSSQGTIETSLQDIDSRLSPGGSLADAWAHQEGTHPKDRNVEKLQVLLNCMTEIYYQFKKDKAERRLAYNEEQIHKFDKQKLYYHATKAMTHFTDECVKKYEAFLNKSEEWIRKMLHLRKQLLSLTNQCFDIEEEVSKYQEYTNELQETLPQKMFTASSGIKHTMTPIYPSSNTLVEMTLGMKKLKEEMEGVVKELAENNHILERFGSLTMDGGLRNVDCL", "details": "TBK1(h); 100 μM", "outline": "as §1"}, "266 human kinases [3]": {"molecular_target": "266 human kinases (Homo sapiens, UniProt O96017, I157T)", "details": "CHK2(I157T)(h); 100 μM", "outline": "as §1"}, "266 human kinases [4]": {"molecular_target": "266 human kinases (Homo sapiens, UniProt O96013)", "sequence (O96013 whole entry)": "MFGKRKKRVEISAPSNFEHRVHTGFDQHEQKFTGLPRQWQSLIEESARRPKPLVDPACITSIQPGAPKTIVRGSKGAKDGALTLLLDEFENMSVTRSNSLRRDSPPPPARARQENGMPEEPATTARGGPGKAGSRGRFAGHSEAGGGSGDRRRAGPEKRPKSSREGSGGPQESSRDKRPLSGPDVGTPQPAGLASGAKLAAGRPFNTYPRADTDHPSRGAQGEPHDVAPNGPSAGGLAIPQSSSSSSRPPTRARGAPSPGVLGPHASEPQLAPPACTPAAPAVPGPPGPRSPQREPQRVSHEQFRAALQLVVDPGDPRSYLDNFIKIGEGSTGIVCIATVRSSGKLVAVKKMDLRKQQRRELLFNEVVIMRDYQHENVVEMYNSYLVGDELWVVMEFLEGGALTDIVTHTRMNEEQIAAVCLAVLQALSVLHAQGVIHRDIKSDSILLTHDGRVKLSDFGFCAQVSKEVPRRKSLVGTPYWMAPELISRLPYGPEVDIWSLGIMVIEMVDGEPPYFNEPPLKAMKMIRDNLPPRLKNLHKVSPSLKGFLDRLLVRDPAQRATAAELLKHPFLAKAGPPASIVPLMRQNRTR", "details": "PAK4(h); 100 μM", "outline": "as §1"}, "266 human kinases [5]": {"molecular_target": "266 human kinases (Homo sapiens, UniProt Q13043)", "sequence (Q13043 whole entry)": "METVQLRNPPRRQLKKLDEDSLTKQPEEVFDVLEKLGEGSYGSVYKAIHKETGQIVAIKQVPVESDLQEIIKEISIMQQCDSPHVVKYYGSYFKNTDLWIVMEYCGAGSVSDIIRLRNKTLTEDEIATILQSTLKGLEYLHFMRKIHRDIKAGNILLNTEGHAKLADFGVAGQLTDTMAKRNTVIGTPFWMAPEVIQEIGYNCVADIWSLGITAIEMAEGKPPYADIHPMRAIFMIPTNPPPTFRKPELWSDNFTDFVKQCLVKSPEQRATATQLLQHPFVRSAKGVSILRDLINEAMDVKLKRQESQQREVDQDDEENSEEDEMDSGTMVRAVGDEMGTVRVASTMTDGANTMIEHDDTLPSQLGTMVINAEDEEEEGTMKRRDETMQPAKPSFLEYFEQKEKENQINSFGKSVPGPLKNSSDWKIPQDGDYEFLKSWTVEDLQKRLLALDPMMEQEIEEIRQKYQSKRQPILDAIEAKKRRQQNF", "details": "MST1(h); 100 μM", "outline": "as §1"}, "266 human kinases [6]": {"molecular_target": "266 human kinases (Homo sapiens, UniProt P08581, M1250T)", "details": "Met(M1268T)(h); 100 μM", "outline": "as §1"}, "266 human kinases [7]": {"molecular_target": "266 human kinases (Homo sapiens, UniProt P80192)", "sequence (P80192 whole entry)": "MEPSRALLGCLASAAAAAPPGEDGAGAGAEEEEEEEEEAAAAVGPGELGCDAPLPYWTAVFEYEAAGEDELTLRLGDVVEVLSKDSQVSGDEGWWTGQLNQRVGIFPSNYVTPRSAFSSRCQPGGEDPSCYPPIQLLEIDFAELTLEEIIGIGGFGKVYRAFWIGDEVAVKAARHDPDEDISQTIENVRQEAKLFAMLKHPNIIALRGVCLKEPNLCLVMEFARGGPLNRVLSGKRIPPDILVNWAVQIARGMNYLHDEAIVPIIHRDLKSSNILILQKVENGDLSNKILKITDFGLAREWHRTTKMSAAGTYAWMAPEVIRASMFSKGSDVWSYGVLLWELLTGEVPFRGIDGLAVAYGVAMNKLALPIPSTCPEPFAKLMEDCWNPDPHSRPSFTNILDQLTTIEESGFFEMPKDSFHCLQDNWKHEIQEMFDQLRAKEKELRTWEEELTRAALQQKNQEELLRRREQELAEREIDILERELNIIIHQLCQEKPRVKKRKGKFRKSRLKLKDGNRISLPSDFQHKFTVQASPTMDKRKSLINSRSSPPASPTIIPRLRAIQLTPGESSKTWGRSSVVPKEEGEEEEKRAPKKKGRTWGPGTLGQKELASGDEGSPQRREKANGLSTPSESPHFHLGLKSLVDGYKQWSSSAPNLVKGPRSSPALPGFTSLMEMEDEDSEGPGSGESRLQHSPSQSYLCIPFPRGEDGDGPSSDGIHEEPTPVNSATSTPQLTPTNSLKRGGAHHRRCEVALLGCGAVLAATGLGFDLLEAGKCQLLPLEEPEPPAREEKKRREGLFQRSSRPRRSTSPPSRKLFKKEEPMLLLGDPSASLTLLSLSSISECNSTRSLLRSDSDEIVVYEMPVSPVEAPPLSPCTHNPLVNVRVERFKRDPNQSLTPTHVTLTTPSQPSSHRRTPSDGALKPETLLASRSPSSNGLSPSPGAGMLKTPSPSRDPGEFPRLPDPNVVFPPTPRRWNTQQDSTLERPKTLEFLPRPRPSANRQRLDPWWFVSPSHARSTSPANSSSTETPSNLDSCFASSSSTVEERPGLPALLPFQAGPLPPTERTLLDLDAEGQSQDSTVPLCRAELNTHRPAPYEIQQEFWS", "details": "MLK1(h); 100 μM", "outline": "as §1"}, "266 human kinases [8]": {"molecular_target": "266 human kinases (Homo sapiens, UniProt P43250)", "details": "GRK6(h); 100 μM", "outline": "as §1"}, "266 human kinases [9]": {"molecular_target": "266 human kinases (Homo sapiens, UniProt P52564)", "details": "MKK6(h); 100 μM", "outline": "as §1"}, "266 human kinases [10]": {"molecular_target": "266 human kinases (Homo sapiens, UniProt P06213)", "details": "IR(h), 100 μM", "outline": "as §1"}, "266 human kinases [11]": {"molecular_target": "266 human kinases (Homo sapiens, UniProt Q8TDX7)", "sequence (Q8TDX7 whole entry)": "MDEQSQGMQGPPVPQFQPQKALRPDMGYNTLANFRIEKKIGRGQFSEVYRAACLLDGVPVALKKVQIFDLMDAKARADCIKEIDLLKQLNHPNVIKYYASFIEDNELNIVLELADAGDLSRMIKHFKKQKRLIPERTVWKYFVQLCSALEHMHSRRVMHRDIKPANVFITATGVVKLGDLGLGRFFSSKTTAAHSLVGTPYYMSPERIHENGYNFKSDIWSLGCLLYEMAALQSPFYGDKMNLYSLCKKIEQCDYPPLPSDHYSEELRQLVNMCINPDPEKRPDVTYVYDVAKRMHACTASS", "details": "NEK7(h); 100 μM", "outline": "as §1"}, "266 human kinases [12]": {"molecular_target": "266 human kinases (Homo sapiens, UniProt Q00535)", "sequence (Q00535 whole entry)": "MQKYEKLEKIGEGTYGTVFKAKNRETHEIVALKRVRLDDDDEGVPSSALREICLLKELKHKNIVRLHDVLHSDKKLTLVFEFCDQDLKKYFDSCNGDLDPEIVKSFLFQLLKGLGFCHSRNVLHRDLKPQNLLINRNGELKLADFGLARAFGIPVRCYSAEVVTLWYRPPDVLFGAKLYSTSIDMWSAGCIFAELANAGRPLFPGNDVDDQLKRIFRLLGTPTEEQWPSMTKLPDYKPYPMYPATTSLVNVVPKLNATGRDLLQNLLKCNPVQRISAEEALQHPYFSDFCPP", "details": "100 μM", "outline": "as §1"}, "266 human kinases [13]": {"molecular_target": "266 human kinases (Homo sapiens, UniProt P05771)", "sequence (P05771 whole entry)": "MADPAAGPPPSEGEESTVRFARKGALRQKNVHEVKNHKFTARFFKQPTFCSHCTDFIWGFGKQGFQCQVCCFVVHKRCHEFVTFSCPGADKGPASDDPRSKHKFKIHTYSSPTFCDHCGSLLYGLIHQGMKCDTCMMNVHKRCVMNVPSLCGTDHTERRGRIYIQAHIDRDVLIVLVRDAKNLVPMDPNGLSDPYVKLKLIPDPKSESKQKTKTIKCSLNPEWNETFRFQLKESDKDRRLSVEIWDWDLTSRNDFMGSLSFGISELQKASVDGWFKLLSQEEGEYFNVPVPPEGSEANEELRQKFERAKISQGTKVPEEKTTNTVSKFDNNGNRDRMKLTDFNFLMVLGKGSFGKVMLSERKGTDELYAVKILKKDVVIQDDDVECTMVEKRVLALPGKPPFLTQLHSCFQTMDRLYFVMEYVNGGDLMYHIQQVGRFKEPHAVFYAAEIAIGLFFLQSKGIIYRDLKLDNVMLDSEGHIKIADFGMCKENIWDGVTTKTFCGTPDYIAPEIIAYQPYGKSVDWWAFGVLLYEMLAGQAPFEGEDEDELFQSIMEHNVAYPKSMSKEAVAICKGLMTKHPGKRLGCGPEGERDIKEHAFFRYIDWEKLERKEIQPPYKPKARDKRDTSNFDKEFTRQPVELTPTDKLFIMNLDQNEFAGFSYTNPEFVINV", "details": "PKCβI(h); 100 μM", "outline": "as §1"}, "266 human kinases [14]": {"molecular_target": "266 human kinases (Homo sapiens, UniProt P54646)", "sequence (P54646 whole entry)": "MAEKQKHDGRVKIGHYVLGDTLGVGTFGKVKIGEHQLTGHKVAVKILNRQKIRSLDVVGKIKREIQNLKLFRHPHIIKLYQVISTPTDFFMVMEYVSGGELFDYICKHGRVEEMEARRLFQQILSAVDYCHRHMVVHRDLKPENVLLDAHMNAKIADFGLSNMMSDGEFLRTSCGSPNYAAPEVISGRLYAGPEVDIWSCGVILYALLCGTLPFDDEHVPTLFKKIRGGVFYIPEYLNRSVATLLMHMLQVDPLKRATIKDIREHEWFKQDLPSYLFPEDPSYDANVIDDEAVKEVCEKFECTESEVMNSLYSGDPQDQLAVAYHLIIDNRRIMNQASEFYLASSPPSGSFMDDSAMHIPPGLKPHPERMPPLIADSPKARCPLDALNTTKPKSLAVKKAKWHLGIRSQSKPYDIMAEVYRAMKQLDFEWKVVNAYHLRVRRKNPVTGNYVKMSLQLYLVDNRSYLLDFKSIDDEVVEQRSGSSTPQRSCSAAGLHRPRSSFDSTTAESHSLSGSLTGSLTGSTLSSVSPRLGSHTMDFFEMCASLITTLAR", "details": "AMPKα2(h); 100 μM", "outline": "as §1"}, "266 human kinases [15]": {"molecular_target": "266 human kinases (Homo sapiens, UniProt P50613)", "sequence (P50613 whole entry)": "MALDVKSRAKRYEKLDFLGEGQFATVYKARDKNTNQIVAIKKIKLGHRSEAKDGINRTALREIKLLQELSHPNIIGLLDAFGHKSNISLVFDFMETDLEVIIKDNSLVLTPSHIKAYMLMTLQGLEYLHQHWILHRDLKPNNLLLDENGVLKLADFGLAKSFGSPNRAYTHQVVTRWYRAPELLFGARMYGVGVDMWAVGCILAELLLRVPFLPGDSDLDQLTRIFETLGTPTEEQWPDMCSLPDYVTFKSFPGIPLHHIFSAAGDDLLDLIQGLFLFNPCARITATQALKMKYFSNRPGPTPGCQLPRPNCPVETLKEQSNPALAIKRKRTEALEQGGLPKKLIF", "details": "CDK7/cyclinH/MAT1(h); 100 μM", "outline": "as §1"}, "266 human kinases [16]": {"molecular_target": "266 human kinases (Homo sapiens, UniProt P42345)", "details": "100 μM", "outline": "as §1"}, "266 human kinases [17]": {"molecular_target": "266 human kinases (Homo sapiens, UniProt P07948)", "sequence (P07948 whole entry)": "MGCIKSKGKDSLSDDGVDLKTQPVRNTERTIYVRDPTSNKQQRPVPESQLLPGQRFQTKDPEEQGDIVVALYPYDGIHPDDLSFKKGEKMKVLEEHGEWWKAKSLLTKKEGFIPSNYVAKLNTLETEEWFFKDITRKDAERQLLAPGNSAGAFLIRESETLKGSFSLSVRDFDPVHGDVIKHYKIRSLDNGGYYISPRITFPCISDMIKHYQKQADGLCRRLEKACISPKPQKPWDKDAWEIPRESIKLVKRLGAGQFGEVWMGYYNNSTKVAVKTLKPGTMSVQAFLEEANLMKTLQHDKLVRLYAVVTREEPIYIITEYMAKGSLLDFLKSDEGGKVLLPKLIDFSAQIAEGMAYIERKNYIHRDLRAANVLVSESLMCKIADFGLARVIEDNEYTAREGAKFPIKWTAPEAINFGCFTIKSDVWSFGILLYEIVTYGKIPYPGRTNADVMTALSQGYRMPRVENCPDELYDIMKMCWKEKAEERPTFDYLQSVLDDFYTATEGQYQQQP", "details": "Lyn(h); 100 μM", "outline": "as §1"}, "266 human kinases [18]": {"molecular_target": "T2, 266 human kinases (Homo sapiens, UniProt Q05513)", "T2 sequence (Q05513 1-592)": "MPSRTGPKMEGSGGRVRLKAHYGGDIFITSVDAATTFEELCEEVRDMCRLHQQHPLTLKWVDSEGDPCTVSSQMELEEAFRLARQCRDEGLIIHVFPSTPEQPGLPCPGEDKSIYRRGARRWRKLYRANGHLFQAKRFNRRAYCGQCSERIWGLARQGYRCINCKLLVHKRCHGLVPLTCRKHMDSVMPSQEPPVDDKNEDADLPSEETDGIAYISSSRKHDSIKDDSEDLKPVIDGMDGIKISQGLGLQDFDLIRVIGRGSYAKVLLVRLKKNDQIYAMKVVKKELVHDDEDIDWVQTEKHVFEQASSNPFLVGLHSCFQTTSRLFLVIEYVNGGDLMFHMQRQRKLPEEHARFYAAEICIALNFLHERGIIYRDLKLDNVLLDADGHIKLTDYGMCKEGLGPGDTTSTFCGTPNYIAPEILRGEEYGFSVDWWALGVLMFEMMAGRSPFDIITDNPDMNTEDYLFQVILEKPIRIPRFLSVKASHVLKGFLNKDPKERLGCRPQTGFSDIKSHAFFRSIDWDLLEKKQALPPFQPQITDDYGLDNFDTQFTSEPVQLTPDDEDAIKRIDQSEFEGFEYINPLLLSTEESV", "details": "PKCζ(h); 100 μM", "outline": "as §1"}, "266 human kinases [19]": {"molecular_target": "266 human kinases (Homo sapiens, UniProt Q02763, Y897S)", "details": "Tie2(Y897S)(h); 100 μM", "outline": "as §1"}}, "data": [{"sequence": "HRRIKAWLKKIKALARQLGVAA (mammal) [MMI-0500]", "values": [{"measurement": "% activity", "setting": "266 human kinases [1]", "value": 5, "unit": "%"}, {"measurement": "% activity", "setting": "266 human kinases [2]", "value": 16, "unit": "%"}, {"measurement": "% activity", "setting": "266 human kinases [3]", "value": 3, "unit": "%"}, {"measurement": "% activity", "setting": "266 human kinases [4]", "value": 86, "unit": "%"}, {"measurement": "% activity", "setting": "266 human kinases [5]", "value": 3, "unit": "%"}, {"measurement": "% activity", "setting": "266 human kinases [6]", "value": 239, "unit": "%"}, {"measurement": "% activity", "setting": "266 human kinases [7]", "value": 43, "unit": "%"}, {"measurement": "% activity", "setting": "266 human kinases [8]", "value": 174, "unit": "%"}, {"measurement": "% activity", "setting": "266 human kinases [9]", "value": 18, "unit": "%"}, {"measurement": "% activity", "setting": "266 human kinases [10]; activated", "value": 90, "unit": "%"}, {"measurement": "% activity", "setting": "266 human kinases [10]", "value": 95, "unit": "%"}, {"measurement": "% activity", "setting": "266 human kinases [11]", "value": 89, "unit": "%"}, {"measurement": "% activity", "setting": "266 human kinases [12]; CDK5/p25(h)", "value": 66, "unit": "%"}, {"measurement": "% activity", "setting": "266 human kinases [12]; CDK5/p35(h)", "value": 59, "unit": "%"}, {"measurement": "% activity", "setting": "266 human kinases [13]", "value": 1, "unit": "%"}, {"measurement": "% activity", "setting": "266 human kinases [14]", "value": 9, "unit": "%"}, {"measurement": "% activity", "setting": "266 human kinases [15]", "value": 15, "unit": "%"}, {"measurement": "% activity", "setting": "266 human kinases [16]; mTOR(h)", "value": 135, "unit": "%"}, {"measurement": "% activity", "setting": "266 human kinases [16]; mTOR/FKBP12(h)", "value": 140, "unit": "%"}, {"measurement": "% activity", "setting": "266 human kinases [17]", "value": 31, "unit": "%"}, {"measurement": "% activity", "setting": "266 human kinases [18]", "value": 7, "unit": "%"}, {"measurement": "% activity", "setting": "266 human kinases [19]", "value": 80, "unit": "%"}]}, {"sequence": "YARAAARQARAKALNRQLGVA (mammal) [MMI-0200]", "values": [{"measurement": "% activity", "setting": "266 human kinases [1]", "value": 166, "unit": "%"}, {"measurement": "% activity", "setting": "266 human kinases [2]", "value": 98, "unit": "%"}, {"measurement": "% activity", "setting": "266 human kinases [3]", "value": 85, "unit": "%"}, {"measurement": "% activity", "setting": "266 human kinases [4]", "value": 98, "unit": "%"}, {"measurement": "% activity", "setting": "266 human kinases [5]", "value": 72, "unit": "%"}, {"measurement": "% activity", "setting": "266 human kinases [6]", "value": 143, "unit": "%"}, {"measurement": "% activity", "setting": "266 human kinases [7]", "value": 84, "unit": "%"}, {"measurement": "% activity", "setting": "266 human kinases [8]", "value": 132, "unit": "%"}, {"measurement": "% activity", "setting": "266 human kinases [9]", "value": 98, "unit": "%"}, {"measurement": "% activity", "setting": "266 human kinases [10]", "value": 90, "unit": "%"}, {"measurement": "% activity", "setting": "266 human kinases [11]", "value": 96, "unit": "%"}, {"measurement": "% activity", "setting": "266 human kinases [12]; CDK5/p25(h)", "value": 97, "unit": "%"}, {"measurement": "% activity", "setting": "266 human kinases [12]; CDK5/p35(h)", "value": 92, "unit": "%"}, {"measurement": "% activity", "setting": "266 human kinases [13]", "value": 98, "unit": "%"}, {"measurement": "% activity", "setting": "266 human kinases [14]", "value": 88, "unit": "%"}, {"measurement": "% activity", "setting": "266 human kinases [15]", "value": 67, "unit": "%"}, {"measurement": "% activity", "setting": "266 human kinases [16]; mTOR(h)", "value": 110, "unit": "%"}, {"measurement": "% activity", "setting": "266 human kinases [16]; mTOR/FKBP12(h)", "value": 118, "unit": "%"}, {"measurement": "% activity", "setting": "266 human kinases [17]", "value": 98, "unit": "%"}, {"measurement": "% activity", "setting": "266 human kinases [18]", "value": 98, "unit": "%"}, {"measurement": "% activity", "setting": "266 human kinases [19]", "value": 85, "unit": "%"}]}]}
